Assay results taken from patent publication US20180127504A1 (ACADEMIA SINICA, published 2018).
Changes are numbered by the printed parent chain.

What was measured:
c-Met-Fc control protein = biological target: T1, c-Met-Fc control protein (UniProt P08581 25-932, limits assumed); assay: phage ELISA on coated MET-Fc, anti-M13-HRP detection
T1 construct: Bought control protein; also called Met-Fc (R&D); c-Met-Fe; not shown: Fc part of the bought fusion protein; not described
Description: (§1) The selected phages were further examined by ELISA screening. The 96-well plates were coated with […] of VEGFR2-Fc, Met-Fc (R&D), or BSA (Sigma) protein in 0.1 M sodium bicarbonate overnight at 4° C. After blocking with 1% BSA in PBS (w/v) for 2 hr at room temperature, 70-randomly selected phage clones were added to the plates at a 1:2 dilution in 1% BSA, and incubated for 1 hr at room temperature. Following washes with PBST, the plates were incubated with a 1:2000 dilution of horseradish peroxidase (HRP)-conjugated mouse anti-M13 phage antibody (GE) for 1 hr. After washing with PBST, the colorimetric reaction was developed with the peroxidase substrate ortho-phenylenediamine (OPD; Sigma) plus H₂O₂ for 15 min, and then terminated by the addition of 3 N HCl. The absorbance at 490 nm was determined using a microplate reader (SpectraMax, Molecular Devices). Plasmid DNA of positive clones were isolated and sequenced using the pCANTAB5 sequencing primer set.
(§2) After four rounds of affinity selection (biopanning), the titer of bound phage increased by as much as 3,455-fold (FIG. 1A).

[1] = biological target: T2, VEGFR2-Fc recombinant protein (R&D Systems) (human, UniProt P35968 20-764); assay: phage ELISA, 1x10^9 cfu phage on coated VEGFR2-Fc, anti-M13-HRP detection
T2 construct: Bought protein; also called VEGFR2 recombinant protein; immobilized VEGFR2; not shown: Fc part of the bought fusion protein; not described
T2 sequence (P35968 20-764 limits assumed): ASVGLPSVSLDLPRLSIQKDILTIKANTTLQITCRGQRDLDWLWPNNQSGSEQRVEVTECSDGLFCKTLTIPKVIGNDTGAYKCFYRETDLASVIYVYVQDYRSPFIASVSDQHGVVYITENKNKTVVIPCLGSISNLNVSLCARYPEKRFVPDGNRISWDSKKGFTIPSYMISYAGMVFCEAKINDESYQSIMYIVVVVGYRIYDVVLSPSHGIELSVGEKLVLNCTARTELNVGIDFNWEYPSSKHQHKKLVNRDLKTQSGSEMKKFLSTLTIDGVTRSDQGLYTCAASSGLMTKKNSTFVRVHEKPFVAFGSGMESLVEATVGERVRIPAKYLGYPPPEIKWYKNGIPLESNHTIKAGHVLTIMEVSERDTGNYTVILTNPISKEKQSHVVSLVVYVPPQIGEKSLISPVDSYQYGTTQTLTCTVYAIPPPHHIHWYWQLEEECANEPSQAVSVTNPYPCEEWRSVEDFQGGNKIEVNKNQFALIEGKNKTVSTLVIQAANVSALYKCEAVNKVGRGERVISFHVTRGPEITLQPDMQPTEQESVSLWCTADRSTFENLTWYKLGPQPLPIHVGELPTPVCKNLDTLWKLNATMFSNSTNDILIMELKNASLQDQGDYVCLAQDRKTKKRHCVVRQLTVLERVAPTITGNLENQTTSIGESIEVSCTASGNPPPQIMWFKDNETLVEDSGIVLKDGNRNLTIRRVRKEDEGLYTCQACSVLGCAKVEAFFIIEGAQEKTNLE
Description: as §1, §2

[2] = biological target: T3, VEGFR2 on the cell surface of human umbilical vein endothelial cells (HUVEC) (human, UniProt P35968 20-1356); assay: flow cytometry on HUVECs, 1x10^10 cfu phage, anti-M13 and PE-labelled secondary antibody
T3 construct: Endogenous receptor of human cells; also called cell-surface VEGFR2; cellular VEGFR2
T3 sequence (P35968 20-1356 limits assumed): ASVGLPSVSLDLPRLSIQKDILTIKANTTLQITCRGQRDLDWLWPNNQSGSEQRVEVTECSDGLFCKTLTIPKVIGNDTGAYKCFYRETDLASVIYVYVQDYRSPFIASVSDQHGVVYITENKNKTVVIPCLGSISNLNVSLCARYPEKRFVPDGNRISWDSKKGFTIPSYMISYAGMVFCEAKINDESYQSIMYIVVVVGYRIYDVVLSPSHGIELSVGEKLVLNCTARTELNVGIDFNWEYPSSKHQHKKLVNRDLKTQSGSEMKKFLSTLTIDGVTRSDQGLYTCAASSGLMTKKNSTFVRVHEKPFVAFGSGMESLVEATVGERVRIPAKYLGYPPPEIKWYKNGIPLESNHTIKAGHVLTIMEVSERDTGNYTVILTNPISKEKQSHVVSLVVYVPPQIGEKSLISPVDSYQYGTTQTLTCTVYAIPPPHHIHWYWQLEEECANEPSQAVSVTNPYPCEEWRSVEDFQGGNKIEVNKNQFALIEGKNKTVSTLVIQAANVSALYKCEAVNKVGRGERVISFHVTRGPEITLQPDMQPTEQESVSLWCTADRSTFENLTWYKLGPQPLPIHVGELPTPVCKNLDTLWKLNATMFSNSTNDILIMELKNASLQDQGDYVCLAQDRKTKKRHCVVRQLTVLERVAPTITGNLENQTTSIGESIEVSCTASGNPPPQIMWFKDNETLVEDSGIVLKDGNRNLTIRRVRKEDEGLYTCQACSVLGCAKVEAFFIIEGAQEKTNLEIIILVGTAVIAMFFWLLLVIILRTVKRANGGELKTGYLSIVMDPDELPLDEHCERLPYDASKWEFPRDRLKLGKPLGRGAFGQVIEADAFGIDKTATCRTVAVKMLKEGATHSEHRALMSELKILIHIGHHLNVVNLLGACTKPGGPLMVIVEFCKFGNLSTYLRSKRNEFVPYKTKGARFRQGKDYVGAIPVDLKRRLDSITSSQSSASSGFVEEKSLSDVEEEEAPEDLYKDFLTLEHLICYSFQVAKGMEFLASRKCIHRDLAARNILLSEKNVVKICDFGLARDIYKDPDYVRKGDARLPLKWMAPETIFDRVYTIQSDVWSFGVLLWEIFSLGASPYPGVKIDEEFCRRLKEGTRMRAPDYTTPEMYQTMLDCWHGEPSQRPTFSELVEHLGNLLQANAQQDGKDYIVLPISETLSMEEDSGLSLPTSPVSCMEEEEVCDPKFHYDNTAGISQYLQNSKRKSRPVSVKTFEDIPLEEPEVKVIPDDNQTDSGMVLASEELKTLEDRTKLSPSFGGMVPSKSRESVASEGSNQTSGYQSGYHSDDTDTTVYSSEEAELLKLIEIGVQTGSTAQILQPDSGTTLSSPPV
Description: About 1×10⁴ HUVEC were incubated with the selected anti-VEGFR2 phage clones at 4° C. for 1 hour in FACS buffer (PBS containing 1% fetal bovine serum). After the cells were washed with FACS buffer, they were first incubated with mouse anti-M13 phage Ab for 1 hr at 4° C., and then with R-phycoerythrin-conjugated goat anti-mouse IgG (Jackson Immuno Research) for 30 min at 4° C. Flow cytometry was performed with a FACSCantoII (BD), and emission fluorescence intensity was measured with FACS Diva software (BD) to quantitatively compare binding affinities.
as §2

[3] = biological target: T2, VEGFR2-Fc recombinant protein (R&D …); assay: SPR, BIACORE T100, VEGFR2-Fc coupled to CM5 chip, IgG as analyte
Description: (§3) The affinity and kinetics of anti-VEGFR2 antibodies were measured by surface plasmon resonance in a BIACORE T100™ (GE healthcare). VEGFR2-Fc protein was coupled to an EDC- and NHS-activated CM5 sensor chip in a BIACORE flow cell, and then blocked with ethanolamine according to the manufacturer's directions. Associated and dissociated phases were monitored under continuous flow of 30 μl/min, using antibody concentrations ranging from 0.1 to 100 nM for 5 min. Regeneration was performed by injection of regenerate buffer (0.2 M NaCl, 10 mM glycine, pH 2.7). To determine binding constants, the sensorgrams were fit globally to a sample 1:1 interaction model using BIAevaluation software (GE healthcare).
(§4) We analyzed the affinity of both human antibodies to VEGFR2 using a BIACORE T100™.

[4] = biological target: T2, VEGFR2-Fc recombinant protein (R&D …); assay: solid-phase competitive ELISA: antibody against 4 nM VEGF-A on immobilized VEGFR2
[5] = biological target: T2, VEGFR2-Fc recombinant protein (R&D …); assay: surface plasmon resonance, BIACORE T100, VEGFR2-Fc coupled to a CM5 chip, purified IgG as analyte
Description: as §3, §4

T1 sequence (P08581 25-932 limits assumed): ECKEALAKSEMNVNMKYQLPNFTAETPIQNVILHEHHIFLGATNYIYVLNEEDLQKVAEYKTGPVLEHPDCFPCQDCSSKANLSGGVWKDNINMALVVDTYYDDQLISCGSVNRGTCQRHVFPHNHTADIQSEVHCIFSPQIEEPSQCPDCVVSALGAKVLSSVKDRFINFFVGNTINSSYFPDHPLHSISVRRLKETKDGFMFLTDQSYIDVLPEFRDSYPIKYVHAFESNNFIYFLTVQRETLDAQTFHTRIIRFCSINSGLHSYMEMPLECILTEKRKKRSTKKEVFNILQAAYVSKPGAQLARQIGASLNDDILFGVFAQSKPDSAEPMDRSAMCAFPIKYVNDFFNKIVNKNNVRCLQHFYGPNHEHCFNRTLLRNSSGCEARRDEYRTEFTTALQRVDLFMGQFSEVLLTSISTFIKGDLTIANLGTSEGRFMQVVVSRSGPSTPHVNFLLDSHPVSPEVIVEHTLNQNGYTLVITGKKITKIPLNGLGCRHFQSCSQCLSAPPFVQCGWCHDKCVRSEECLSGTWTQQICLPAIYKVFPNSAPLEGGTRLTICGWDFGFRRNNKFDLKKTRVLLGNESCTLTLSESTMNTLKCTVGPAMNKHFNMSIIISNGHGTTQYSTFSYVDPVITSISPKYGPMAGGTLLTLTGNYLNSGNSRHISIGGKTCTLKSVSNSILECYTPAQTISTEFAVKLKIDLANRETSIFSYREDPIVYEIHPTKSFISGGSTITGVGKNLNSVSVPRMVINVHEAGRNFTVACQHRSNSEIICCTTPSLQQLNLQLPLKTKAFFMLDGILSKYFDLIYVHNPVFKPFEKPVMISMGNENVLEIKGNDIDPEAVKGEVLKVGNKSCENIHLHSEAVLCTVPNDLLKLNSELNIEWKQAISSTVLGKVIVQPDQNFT

B1: R2PC45 (scFv, V domains shown)
VH: QVNLRESGGGVVQPGRSLRLSCAASGFTFSSYAMHWVRQAPGKGLEWVAVISYDGSNKYYADSVKGRFTISRDNSKNTLYLQMNSLRAEDTAVYYCAREQDYGSSSGDAFDIWGQGTMVTVSS
VL: DIQMTQSPSSLSASVGDRVTITCRASQRISSYLNWYQQKPGKAPKLLIYDASNLQSGVPSRFSGSGSGTDFTLTINGLQPDDFAIYFCHQSYSAPPTFGQGTKVEIK
notes: also called anti-VEGFR2 scFv phage clone 45
binding result (c-Met-Fc control protein): no binding (tested: 1x10^9 cfu)
binding result [1]: binds
binding result [2]: binds

B2: anti-VEGFR2-AF fully human antibody (hAb) (antibody, human IgG1)
heavy: not shown
light: DIQMTQSPSSLSASVGDRVTITCKASDDIINYLNWYQQKPGEAPKLLIYDASILETGVPSRFSGSGSGTDFTFTISSLQPEDIATYYCQQLDDIPITFGGGTKLEIK
notes: also called anti-VEGFR2-AF hAb; R2S12-AF in human IgG1 backbone; not shown: kappa constant region of vector p-Kappa-HuGs
Kd [3]: 0.264 nM
IC50 [4]: 0.88 nM
koff [5]: 0.000442 s⁻¹
kon [5]: 1.67e+06 M⁻¹ s⁻¹

B3: anti-VEGFR2 fully human antibody (hAb) (antibody)
heavy: not shown
light: B2 light with L91Y, D93I, I94L, I96L
notes: also called anti-VEGFR2 hAb; R2S12 in human IgG1 backbone; not shown: kappa constant region of vector p-Kappa-HuGs
Kd [3]: 2.1 nM
IC50 [4]: 1.87 nM
koff [5]: 0.000472 s⁻¹
kon [5]: 225000 M⁻¹ s⁻¹
